One molecule from publication PMC10208975, “TCF7L2 acts as a molecular switch in midbrain to control mammal vocalization through its DNA binding domain but not transcription activation domain” can be followed below.

Common to all, as to conditions: protein: recombinant; tags: MBP (pMAL-cRI); only one strand given
The target of data set [1] is TCF7L2 HMG box WT (MBP fusion) (UniProt Q924A0 327-395). Kind of data set: EMSA; dose-dependent; 50 mM NaCl, 20 mM Tris-HCl (pH not stated), 1 mM DTT, 1 mM MgCl2, 5% glycerol, 1 h at 25 C; 6% native PAGE.
The target in data set [2] is TCF7L2 HMG box Y337S (MBP fusion) (UniProt Q924A0 327-395, Y337S). Put plainly: EMSA; 50 mM NaCl, 20 mM Tris-HCl (pH not stated), 1 mM DTT, 1 mM MgCl2, 5% glycerol, 1 h at 25 C; 6% native PAGE. For orientation: A gel shift assay detects complexes by their altered migration in electrophoresis.
The target in data set [3] is TCF7L2 HMG box Y337E (MBP fusion) (UniProt Q924A0 327-395, Y337E). Described as above.
The target in data set [4] is TCF7L2 HMG box Y337H (MBP fusion) (UniProt Q924A0 327-395, Y337H). The data set is described as above.
Data set [5] addresses TCF7L2 HMG box Y337F (MBP fusion) (UniProt Q924A0 327-395, Y337F). Put plainly: EMSA; binding largely retained; 50 mM NaCl, 20 mM Tris-HCl (pH not stated), 1 mM DTT, 1 mM MgCl2, 5% glycerol, 1 h at 25 C; 6% native PAGE.

Sequence of TCF7L2 HMG box WT (MBP fusion) (Q924A0 327-395): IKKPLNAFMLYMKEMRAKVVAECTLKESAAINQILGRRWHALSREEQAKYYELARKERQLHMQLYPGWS
Sequence of TCF7L2 HMG box Y337S (MBP fusion) (Q924A0 327-395 Y337S): as the sequence (Q924A0 327-395) above, with Y11S counted along it
Sequence of TCF7L2 HMG box Y337F (MBP fusion) (Q924A0 327-395 Y337F): as the sequence (Q924A0 327-395) above, with Y11F counted along it
Sequence of TCF7L2 HMG box Y337E (MBP fusion) (Q924A0 327-395 Y337E): as the sequence (Q924A0 327-395) above, with Y11E counted along it
Sequence of TCF7L2 HMG box Y337H (MBP fusion) (Q924A0 327-395 Y337H): as the sequence (Q924A0 327-395) above, with Y11H counted along it

B1: HMG-binding sequence probe (dsDNA)
DNA 1: TAGACGTAGGGCACCCTTTGAAGCTCTCCCTCGA
DNA 2: TCGAGGGAGAGCTTCAAAGGGTGCCCTACGTCTA
On to B1, for which the binding result in data set [1] is given as “binds”; in data set [2], “no binding”; in data set [3], “no binding”; in data set [4], “no binding”; in data set [5] it was “binds”.
